The source of these data is patent publication US20230235054A1 (BIOATLA, published 2023).

In test [1] the target is T1, CD3 epsilon/delta heterodimer protein (human, UniProt P07766 23-126; P04234 22-105).
T1 construct: Capture antigen of the bridging ELISA; also called human CD3; recombinant human CD3 antigen
Put plainly: bridging ELISA, human CD3 coated, bispecific titrated, detection with human Nectin-4-mFc and anti-mouse IgG HRP, tumor pH (pH 6.0 in the protocol); the signal needs both arms. The protocol: (§1) 1) Coat ELISA plates with 100 μL of 0.5 μg/mL recombinant human CD3 antigen in carbonate-bicarbonate coating buffer. 2) Cover plates with sealing film and incubate overnight at 4° C. 3) Decant plates and tap out residual liquid on a stack of paper towels. 4) Wash wells twice by dispensing 200 μL of pH 6.0 or pH 7.4 ELISA incubation buffer to the wells and completely aspirate the contents. 5) Add 200 μL of pH 6.0 or pH 7.4 ELISA incubation buffer to the wells. Cover with sealing film and place the plate onto a plate shaker set to 50 rpm for 60 minutes at room temperature. 6) Decant plates and tap out residual liquid on a stack of paper towels. 7) Serially dilute test articles in 3-fold dilutions starting at 3000 ng/mL in pH 6.0 or pH 7.4 ELISA incubation buffer. 8) Add 100 μL/well of diluted test articles to the plates 9) Cover with sealing film and place the plates onto a plate shaker set to 50 rpm for 60 minutes at room temperature. 10) Decant plates and tap out residual liquid on a stack of paper towels. 11) Wash wells three times by dispensing 200 μL of pH 6.0 or pH 7.4 ELISA wash buffer to the wells and completely aspirate the contents. 12) Dilute the HRP secondary antibody at 1:2500 in pH 6.0 or pH 7.4 ELISA incubation buffer. […] Read plates at 450 nm using PerkinElmer, EnSpire 2300 Multilabel Reader.
A general note: ELISA stands for enzyme-linked immunosorbent assay.

Another test deals with T2, human Nectin-4-mFc (human, UniProt Q96NY8 32-349).
T2 construct: extracellular domain; Detection reagent of the bridging ELISA; also called recombinant human Nectin-4 ECD; not shown: mFc (mouse Fc)
T2 sequence (looked up): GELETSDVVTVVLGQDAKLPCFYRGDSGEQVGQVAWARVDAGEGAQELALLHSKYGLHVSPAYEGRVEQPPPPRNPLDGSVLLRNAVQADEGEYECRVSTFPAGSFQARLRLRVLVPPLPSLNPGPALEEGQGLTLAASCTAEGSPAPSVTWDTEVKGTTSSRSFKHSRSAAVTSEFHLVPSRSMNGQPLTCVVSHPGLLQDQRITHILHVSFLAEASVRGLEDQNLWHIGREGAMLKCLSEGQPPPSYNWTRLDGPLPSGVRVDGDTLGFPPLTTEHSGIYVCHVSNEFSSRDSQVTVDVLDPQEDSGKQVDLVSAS
Put plainly: bridging ELISA, human CD3 coated, detection with human Nectin-4-mFc and anti-mouse IgG HRP, tumor pH (pH 6.0 in the protocol).

The target of test [2] is T1, CD3 epsilon/delta heterodimer protein. The experiment in a line: bridging ELISA, human CD3 coated, bispecific titrated, detection with human Nectin-4-mFc and anti-mouse IgG HRP, physiological pH (pH 7.4 in the protocol); the signal needs both arms. On the procedure: as §1

Numbering of substitutions follows the chain as printed.

T1 sequence (P07766 23-126, stated change not applied, chain 1 of 2): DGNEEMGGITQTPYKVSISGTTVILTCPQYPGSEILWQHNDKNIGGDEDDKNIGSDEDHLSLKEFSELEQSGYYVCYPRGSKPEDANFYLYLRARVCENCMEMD
T1 sequence (P04234 22-105, stated change not applied, chain 2 of 2): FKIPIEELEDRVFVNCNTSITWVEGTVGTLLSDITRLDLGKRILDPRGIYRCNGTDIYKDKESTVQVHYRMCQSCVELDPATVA

B1: WT Nectin4 × WT CD3 (bispecific antibody)
VH: EVQLVESGGGLVQPGGSLRLSCAASGFTFSSYNMNWVRQAPGKGLEWVSYISSSSSTIYYADSVKGRFTISRDNAKNSLSLQMNSLRDEDTAVYYCARAYYYGMDVWGQGTTVTVSS
light: DIQMTQSPSSVSASVGDRVTITCRASQGISGWLAWYQQKPGKAPKFLIYAASTLQSGVPSRFSGSGSGTDFTLTISSLQPEDFATYYCQQAQSFPPTFGGGTKVEIKRTVAAPSVFIFPPSDEQLKSGTASVVCLLNNFYPREAKVQWKVDNALQSGNSQESVTEQDSKDSTYSLSSTLTLSKADYEKHKVYACEVTHQGLSSPVTKSFNRGECSRSGGGGEVQLVESGGGLVQPGGSLRLSCAASGFTFNTYAMNWVRQAPGKGLEWVARIRSKYNNYATYYADSVKDRFTISRDDSKNSLYLQMNSLKTEDTAVYYCVRHGNFGNSYVSWFAYWGQGTLVTVSSGGSGGSGGSGGSGGQAVVTQEPSLTVSPGGTVTLTCRSSTGAVTTSNYANWVQQKPGQAPRGLIGGTNKRAPWTPARFSGSLLGGKAALTITGAQAEDEADYYCALWYSNLWVFGGGTKLTVLSR
notes: elsewhere it is called a light chain variable region that also carries six anti-CD3 CDRs; also called BA-150-19-01-01-BF1; benchmark
A word on the EC50 (read off the curve): it is the concentration needed to bring the measured effect to its halfway point. B1: the “EC50 (read off the curve)” value was ~0.05 µg/mL in test [1] and ~0.03 µg/mL in test [2]. In addition, the binding result with human Nectin-4-mFc is listed as “binds”.

B2: CAB Nectin4 × CAB CD3 (bispecific antibody)
VH: B1 VH with V106K
light: B1 light with L33E, G326P, Y329K, A334Q, A395D
notes: elsewhere it is called a light chain variable region that also carries six anti-CD3 CDRs; also called BA-150-30-03-12-BF19
Regarding B2, the 50% effective concentration (EC50 (read off the curve)) in test [1] is ~0.03 µg/mL; in test [2] it was ~0.2 µg/mL. Also, the binding result with human Nectin-4-mFc is on record as “binds”.
